Target: endogenous GLP-1 receptor of MIN 6 cells (mouse) (UniProt O35659)
Assay: cell-based or functional assay

Substance | Insulin Secretion Capacity of GLP-1 Peptide Complex in MIN 6 Cells (% of control), at 1000 pM | Insulin Secretion Capacity of GLP-1 Peptide Complex in MIN 6 Cells (EC50 value)
[Ser8]-GLP-1(7-35)-GAm(1-46)-NH2 (peptide) | 18 % of control | > 1 nM
[Ser8]-GLP-1(7-35)-GAm(17-46)-NH2 (peptide) | 39 % of control | > 1 nM
[Ser8]-GLP-1(7-35)-GAm(21-46)-NH2 (peptide) | 45 % of control | 
[Ser8]-GLP-1(7-35)-GAm(22-46)-NH2 (peptide) | 100 % of control | 
[Ser8]-GLP-1(7-35)-GAm(25-46)-NH2 (peptide) | 104 % of control | 
[Ser8]-GLP-1(7-35)-GAm(27-46)-NH2 (peptide) | 106 % of control | 
[Ser8]-GLP-1(7-35)-GAm(28-42)-NH2 (peptide) | 105 % of control | 
[Ser8]-GLP-1(7-35)-GAm(28-44) (peptide) | 139 % of control | 
[Ser8]-GLP-1(7-35)-GAm(28-44)-NH2 (peptide) | 105 % of control | 
[Ser8]-GLP-1(7-35)-GAm(30-42)-NH2 (peptide) | 85 % of control | 
[Ser8]-GLP-1(7-35)-GAm(31-44)-NH2 (peptide) | 83 % of control | 
[Ser8]-GLP-1(7-35)-GAm(32-44)-NH2 (peptide) | 109 % of control | 
[Ser8]-GLP-1(7-35)-GAm(33-44) (peptide) | 89 % of control | 
[Ser8]-GLP-1(7-35)-GAm(33-44)-NH2 (peptide) | 118 % of control | 
[Ser8]-GLP-1(7-35)-GAm(35-44)-NH2 (peptide) | 115 % of control | 
[Ser8]-GLP-1(7-35)-GAm(37-44) (peptide) | 98 % of control | 
[Ser8]-GLP-1(7-35)-GAm(37-44)-NH2 (peptide) | 82 % of control | 
[Ser8]-GLP-1(7-35)-GAm(38-42)-NH2 (peptide) | 125 % of control | 0.5 nM
[Ser8]-GLP-1(7-35)-GAm(38-44)-NH2 (peptide) | 120 % of control | 

Target: endogenous SSTR 5 of MIN 6 cells (mouse) (UniProt O08858)
Sequence (O08858 whole entry): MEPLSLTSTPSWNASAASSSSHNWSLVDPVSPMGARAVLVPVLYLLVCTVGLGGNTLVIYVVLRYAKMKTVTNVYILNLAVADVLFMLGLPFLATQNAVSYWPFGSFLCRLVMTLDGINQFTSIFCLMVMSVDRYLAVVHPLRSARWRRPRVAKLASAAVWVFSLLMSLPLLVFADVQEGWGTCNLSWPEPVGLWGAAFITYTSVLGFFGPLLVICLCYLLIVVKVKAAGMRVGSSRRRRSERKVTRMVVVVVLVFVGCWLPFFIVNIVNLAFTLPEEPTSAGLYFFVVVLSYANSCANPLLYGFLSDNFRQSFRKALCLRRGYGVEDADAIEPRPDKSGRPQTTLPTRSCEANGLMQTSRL
Assay: cell-based or functional assay

Substance | Suppressibility of Insulin Secretion in MIN 6 Cells, Suppression rate of insulin secretion (%) relative to native SRIF
SRIF(1-14)-NH2 (peptide) | 100%

Target: endogenous VIP receptor of SUP-T1 cells (human)
Assay: cell-based or functional assay

Substance | cAMP Productivity in SUP-T1 Cells, Activity Intensity (%) relative to native VIP
VIP(1-28)-GAm(28-44)-NH2 (peptide) | 67%
VIP(1-28)-GAm(32-44)-NH2 (peptide) | 85%
VIP(1-28)-GAm(37-44)-NH2 (peptide) | 81%

Source: patent US20130123460A1, “PEPTIDE FOR IMPROVING BIOSTABILITY OF BIOACTIVE SUBSTANCE, AND BIOACTIVE SUBSTANCE HAVING IMPROVED BIOSTABILITY” (priority 2010, published 2013)
